Data reported in paper PMC4141020 (Traffic (Copenhagen, Denmark), 2014).

Target: T1, Mpl expressed as an mKO2 fusion protein (Mpl^mKO2) (human, UniProt P40238 26-635)
T1 sequence (looked up): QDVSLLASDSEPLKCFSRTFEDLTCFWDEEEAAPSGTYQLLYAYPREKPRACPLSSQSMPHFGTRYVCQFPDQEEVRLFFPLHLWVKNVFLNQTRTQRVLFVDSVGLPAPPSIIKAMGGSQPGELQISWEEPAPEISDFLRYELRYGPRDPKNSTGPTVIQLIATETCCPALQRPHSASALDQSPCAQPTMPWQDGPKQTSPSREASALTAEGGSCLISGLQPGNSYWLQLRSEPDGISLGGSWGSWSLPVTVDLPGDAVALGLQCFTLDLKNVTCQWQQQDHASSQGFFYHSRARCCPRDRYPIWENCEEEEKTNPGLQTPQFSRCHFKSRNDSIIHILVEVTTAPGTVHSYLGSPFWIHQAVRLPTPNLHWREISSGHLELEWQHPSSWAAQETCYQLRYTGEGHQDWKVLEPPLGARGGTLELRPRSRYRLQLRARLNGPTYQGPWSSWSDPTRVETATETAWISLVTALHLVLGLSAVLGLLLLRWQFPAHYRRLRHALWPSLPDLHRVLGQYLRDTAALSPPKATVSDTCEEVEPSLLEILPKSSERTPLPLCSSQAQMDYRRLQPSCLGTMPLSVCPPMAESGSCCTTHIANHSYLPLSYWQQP
Assay: co-IP

B1: Jak2WT (endogenous wildtype Jak2 of K562 cells) (enzyme, human (endogenous in K562), UniProt O60674 1-1132, looked up)
chain: MGMACLTMTEMEGTSTSSIYQNGDISGNANSMKQIDPVLQVYLYHSLGKSEADYLTFPSGEYVAEEICIAASKACGITPVYHNMFALMSETERIWYPPNHVFHIDESTRHNVLYRIRFYFPRWYCSGSNRAYRHGISRGAEAPLLDDFVMSYLFAQWRHDFVHGWIKVPVTHETQEECLGMAVLDMMRIAKENDQTPLAIYNSISYKTFLPKCIRAKIQDYHILTRKRIRYRFRRFIQQFSQCKATARNLKLKYLINLETLQSAFYTEKFEVKEPGSGPSGEEIFATIIITGNGGIQWSRGKHKESETLTEQDLQLYCDFPNIIDVSIKQANQEGSNESRVVTIHKQDGKNLEIELSSLREALSFVSLIDGYYRLTADAHHYLCKEVAPPAVLENIQSNCHGPISMDFAISKLKKAGNQTGLYVLRCSPKDFNKYFLTFAVERENVIEYKHCLITKNENEEYNLSGTKKNFSSLKDLLNCYQMETVRSDNIIFQFTKCCPPKPKDKSNLLVFRTNGVSDVPTSPTLQRPTHMNQMVFHKIRNEDLIFNESLGQGTFTKIFKGVRREVGDYGQLHETEVLLKVLDKAHRNYSESFFEAASMMSKLSHKHLVLNYGVCVCGDENILVQEFVKFGSLDTYLKKNKNCINILWKLEVAKQLAWAMHFLEENTLIHGNVCAKNILLIREEDRKTGNPPFIKLSDPGISITVLPKDILQERIPWVPPECIENPKNLNLATDKWSFGTTLWEICSGGDKPLSALDSQRKLQFYEDRHQLPAPKWAELANLINNCMDYEPDFRPSFRAIIRDLNSLFTPDYELLTENDMLPNMRIGALGFSGAFEDRDPTQFEERHLKFLQQLGKGNFGSVEMCRYDPLQDNTGEVVAVKKLQHSTEEHLRDFEREIEILKSLQHDNIVKYKGVCYSAGRRNLKLIMEYLPYGSLRDYLQKHKERIDHIKLLQYTSQICKGMEYLGTKRYIHRDLATRNILVENENRVKIGDFGLTKVLPQDKEYYKVKEPGESPIFWYAPESLTESKFSVASDVWSFGVVLYELFTYIEKSKSPPAEFMRMIGNDKQGQMIVFHLIELLKNNGRLPRPDGCPDEIYMIMTECWNNNVNQRPSFRDLALRVDQIRDNMAG
  fold more co-immunoprecipitated than Jak2V617F with endogenous Mpl in HEL cells: ~8 fold
